Article PMC5339904

Tests used:
[1] = biological target: GCN4 leucine zipper fused to the β-lactamase fragments N-BLa and C-BLa; assay: split reporter (BiFC, NanoBiT); split β-lactamase; soluble N-BLa and C-BLa fusions co-expressed in the E. coli periplasm; read-out: ampicillin LD50 in liquid media by optical density
[2] = biological target: GpA0 G83I; assay: BLaTM 1.2 (split β-lactamase complementation, ampicillin resistance); settings: E. coli JM83, 133 μM arabinose, n = 3, read off a plot
[3] = biological target: glycophorin A transmembrane domain G83I mutant, frame GpA+1, in BLaTM hybrid proteins; assay: split reporter (BiFC, NanoBiT); BLaTM 1.2 (ompA signal) in E. coli JM83; 133 μM arabinose plus 0.3 mM IPTG; ampicillin LD50 given relative to wild-type GpA+1 (=100%); library pairs first selected on ampicillin, then measured one by one; labels are N-BLa/C-BLa
[4] = biological target: glycophorin A transmembrane domain G83I mutant, frame GpA+1, in BLaTM hybrid proteins; assay: BLaTM 1.1 (split β-lactamase complementation, ampicillin resistance); settings: E. coli BL21; n = 4 separate transformations; parent: est. 160 µg/ml; read off a plot
[5] = biological target: glycophorin A transmembrane domain G83I mutant, frame GpA+1, in BLaTM hybrid proteins; assay: BLaTM 1.2 (split β-lactamase complementation, ampicillin resistance); settings: E. coli JM83, 133 μM arabinose, n = 3, read off a plot
[6] = biological target: quiescin sulfhydryl oxidase 2 transmembrane domain S8A mutant, in BLaTM hybrid proteins; assay: BLaTM 1.1 (split β-lactamase complementation, ampicillin resistance); settings: E. coli BL21; n = 4 separate transformations; parent: est. 80 µg/ml; read off a plot

GCN4 leucine zipper fused to the β-lactamase fragments N-BLa and C-BLa, sequence (P03069 whole entry, the tested form may be a part): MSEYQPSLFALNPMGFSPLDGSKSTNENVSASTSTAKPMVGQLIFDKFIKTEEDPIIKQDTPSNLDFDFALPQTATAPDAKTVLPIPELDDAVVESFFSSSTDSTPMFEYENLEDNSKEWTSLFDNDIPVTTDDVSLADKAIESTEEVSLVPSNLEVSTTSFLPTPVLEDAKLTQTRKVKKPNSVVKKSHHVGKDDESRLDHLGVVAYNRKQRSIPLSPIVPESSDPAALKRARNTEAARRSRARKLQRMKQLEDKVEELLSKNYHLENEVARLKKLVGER

## GCN4 leucine zipper fused to the β-lactamase fragments N-BLa and C-BLa
[1]
  fold rise of the ampicillin LD50 on co-expression of both fragments: 40 fold

## GpA0 wt G83I
[2]; 0.1 mM IPTG, parent: est. 230 µg/ml
  other: LD50 c(Amp): 150 µg/mL
[2]; 0.2 mM IPTG, parent: est. 99 µg/ml
  other: LD50 c(Amp): 73 µg/mL
[2]; 0.3 mM IPTG, parent: est. 80 µg/ml
  other: LD50 c(Amp): 52 µg/mL
[2]; 0.4 mM IPTG, parent: est. 61 µg/ml
  other: LD50 c(Amp): 38 µg/mL
[2]; 0.7 mM IPTG, parent: est. 30 µg/ml
  other: LD50 c(Amp): 24 µg/mL

## glycophorin A transmembrane domain G83I mutant, frame GpA+1, in BLaTM hybrid proteins (domain or fragment)
[3]
  LD50 in % of GpA+1 wt (% (GpA+1 wt = 100%)): 29

## glycophorin A transmembrane domain, wild type, frame GpA+1, in BLaTM hybrid proteins G83I
[4]
  other: LD50 c(Amp): 16 µg/mL
[5]; 0.1 mM IPTG
  other: LD50 c(Amp): 120 µg/mL
[5]; 0.2 mM IPTG
  other: LD50 c(Amp): 70 µg/mL
[5]; 0.3 mM IPTG, parent: est. 270 µg/ml
  other: LD50 c(Amp): 65 µg/mL
[5]; 0.4 mM IPTG, parent: est. 140 µg/ml
  other: LD50 c(Amp): 43 µg/mL
[5]; 0.5 mM IPTG, parent: est. 100 µg/ml
  other: LD50 c(Amp): 32 µg/mL
[5]; 0.7 mM IPTG, parent: est. 62 µg/ml
  other: LD50 c(Amp): 27 µg/mL

## quiescin sulfhydryl oxidase 2 transmembrane domain, wild type, in BLaTM hybrid proteins S8A
[6]
  other: LD50 c(Amp): 38 µg/mL
